The results in this text go back to patent US20140072544A1, “POLYBACTERIAL PREPARATION WITH HEALTH BENEFITS: ANTIOXIDANT EFFECT, REDUCTION OF CHOLESTEROL CONCENTRATION, ANTI-INFLAMMATORY IMMUNOMODULATING EFFECT AND RELEASE OF BIOACTIVE PEPTIDES INHIBITING ANGIOTENSIN-CONVERTING ENZYME” (LB BULGARICUM PLC, priority 2011, published 2014).

In this assay the target is angiotensin-converting enzyme (ACE) (Homo sapiens, UniProt P12821). The assay can be described thus: ACE-inhibiting activity of peptide extracts. Type of assay: biochemical. The conditions noted are these: purified single peptide released by L. helveticus A1 (HPLC fractionation, ion exchange). On the procedure: Purified strains with inoculum of 0.1% are incubated for 18 hours in 9% skimmed milk at 37° C. After adjusting the pH to 4.3 with 50% lactic acid the samples are centrifuged (5000 g, 10 min). Supernatant is dosed at reverse-phase cartridge and washed with water. The process is followed by elution with 60% acetonitrile in 0.1% trifluoroacetic acid and then evaporation and reconstitution of the resulting extract. The extract or its dilutions are analyzed for inhibition of ACE.
A total peptide extract is prepared. Enzymatic reaction is carried out by a conventional test, but using different dilutions of peptide extracts as their volume is 20 μl. The enzyme solution was 40 μl with an activity of 0.1 U/ml. The substrate hipuril-histidil-leucine is dissolved in borate buffer at pH 8.3 and has a volume of 190 μl. The final concentration of the substrate is 6 mM, and those of sodium chloride is 300 mM. The reaction is conducted at 37° C. for 30 minutes. The seizing is performed with 100 microliters of 4 n HCl, and the extraction of the freed hippuric acid is done with 1 ml of ethyl acetate. After evaporation of the solvent, the residue is dissolved in 1 ml of water and tested spectrophotometrically at 228 nm. […]
where A is the absorbance under the upper reaction, C is the absorbance without enzyme, B is the absorbance without the involvement of peptide extracts. […]

Sequence of angiotensin-converting enzyme (ACE) (P12821 30-1306, species assumed): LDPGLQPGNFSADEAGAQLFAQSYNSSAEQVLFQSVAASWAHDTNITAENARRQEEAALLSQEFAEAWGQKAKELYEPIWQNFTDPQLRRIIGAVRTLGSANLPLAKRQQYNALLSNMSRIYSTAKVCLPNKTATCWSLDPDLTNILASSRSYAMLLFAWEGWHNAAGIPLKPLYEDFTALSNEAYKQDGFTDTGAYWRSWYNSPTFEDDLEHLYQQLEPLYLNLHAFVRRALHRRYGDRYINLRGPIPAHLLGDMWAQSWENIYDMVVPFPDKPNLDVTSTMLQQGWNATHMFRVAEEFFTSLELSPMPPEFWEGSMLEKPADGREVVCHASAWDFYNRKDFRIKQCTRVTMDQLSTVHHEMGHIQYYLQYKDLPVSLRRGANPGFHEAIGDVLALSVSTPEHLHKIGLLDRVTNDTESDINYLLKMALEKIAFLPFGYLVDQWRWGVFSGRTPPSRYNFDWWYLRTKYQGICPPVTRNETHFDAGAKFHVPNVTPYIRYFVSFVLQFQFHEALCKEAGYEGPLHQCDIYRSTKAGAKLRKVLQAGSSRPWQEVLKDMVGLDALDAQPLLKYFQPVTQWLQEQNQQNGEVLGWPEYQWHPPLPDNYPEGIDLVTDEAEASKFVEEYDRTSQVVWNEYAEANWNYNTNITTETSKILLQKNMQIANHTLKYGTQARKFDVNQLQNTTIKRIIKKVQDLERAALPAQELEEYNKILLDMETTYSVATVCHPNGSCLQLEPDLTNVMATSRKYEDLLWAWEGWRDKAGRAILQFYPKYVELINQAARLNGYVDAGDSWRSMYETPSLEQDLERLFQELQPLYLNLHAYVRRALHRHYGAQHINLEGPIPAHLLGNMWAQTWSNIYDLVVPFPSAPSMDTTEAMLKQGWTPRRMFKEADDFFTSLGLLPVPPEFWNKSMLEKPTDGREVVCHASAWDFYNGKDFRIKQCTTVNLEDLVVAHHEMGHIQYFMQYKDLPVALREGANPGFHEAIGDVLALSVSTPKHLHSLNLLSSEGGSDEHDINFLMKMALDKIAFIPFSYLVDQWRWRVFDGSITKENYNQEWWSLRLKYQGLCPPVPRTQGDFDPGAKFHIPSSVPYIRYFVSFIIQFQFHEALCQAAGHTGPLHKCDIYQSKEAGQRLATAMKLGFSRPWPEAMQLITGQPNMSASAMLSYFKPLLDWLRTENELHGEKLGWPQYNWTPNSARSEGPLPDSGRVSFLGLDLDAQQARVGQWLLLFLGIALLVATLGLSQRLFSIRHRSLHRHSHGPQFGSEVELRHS

As to “Ala-Leu-Pro-Met (ALPM; printed: Ala-Leu-Pro-Met) [anti-ACE peptide released by the strain L. helveticus A1, purified from fermented milk]”, the Anti-ACE activity % stood at 78.0%.
